Measured values: IntAct's records for PubMed 17928862

B1: Charged multivesicular body protein 1b (Homo sapiens), Q7LBR1 (parent)
chain: MSNMEKHLFNLKFAAKELSRSAKKCDKEEKAEKAKIKKAIQKGNMEVARIHAENAIRQKNQAVNFLRMSARVDAVAARVQTAVTMGKVTKSMAGVVKSMDATLKTMNLEKISALMDKFEHQFETLDVQTQQMEDTMSSTTTLTTPQNQVDMLLQEMADEAGLDLNMELPQGQTGSVGTSVASAEQDELSQRLARLRDQV
partner: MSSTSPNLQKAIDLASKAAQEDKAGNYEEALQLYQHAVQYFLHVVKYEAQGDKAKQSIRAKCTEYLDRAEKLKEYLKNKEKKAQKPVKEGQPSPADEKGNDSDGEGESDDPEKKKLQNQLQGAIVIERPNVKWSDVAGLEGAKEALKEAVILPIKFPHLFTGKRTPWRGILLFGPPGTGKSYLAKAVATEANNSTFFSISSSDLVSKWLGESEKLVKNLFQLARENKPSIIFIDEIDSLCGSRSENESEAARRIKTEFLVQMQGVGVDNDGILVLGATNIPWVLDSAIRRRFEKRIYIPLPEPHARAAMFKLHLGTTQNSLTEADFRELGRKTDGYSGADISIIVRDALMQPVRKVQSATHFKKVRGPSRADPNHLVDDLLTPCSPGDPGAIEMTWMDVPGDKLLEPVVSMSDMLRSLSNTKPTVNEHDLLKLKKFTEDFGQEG
B2: Vacuolar protein sorting-associated protein 4A (Homo sapiens), Q9UN37 (parent)
chain: MTTSTLQKAIDLVTKATEEDKAKNYEEALRLYQHAVEYFLHAIKYEAHSDKAKESIRAKCVQYLDRAEKLKDYLRSKEKHGKKPVKENQSEGKGSDSDSEGDNPEKKKLQEQLMGAVVMEKPNIRWNDVAGLEGAKEALKEAVILPIKFPHLFTGKRTPWRGILLFGPPGTGKSYLAKAVATEANNSTFFSVSSSDLMSKWLGESEKLVKNLFELARQHKPSIIFIDEVDSLCGSRNENESEAARRIKTEFLVQMQGVGNNNDGTLVLGATNIPWVLDSAIRRRFEKRIYIPLPEEAARAQMFRLHLGSTPHNLTDANIHELARKTEGYSGADISIIVRDSLMQPVRKVQSATHFKKVCGPSRTNPSMMIDDLLTPCSPGDPGAMEMTWMDVPGDKLLEPVVCMSDMLRSLATTRPTVNADDLLKVKKFSEDFGQES
partner: B1 chain

Variants of: B1
Conditions: with vps4b_human VPS4B

Row | Variant | effect of a mutation on the interaction
1 | L192A | decreasing interaction strength
2 | L188A | decreasing interaction strength

Variants of: B2
Conditions: with chm1b_human CHMP1B

Row | Variant | effect of a mutation on the interaction
3 | L64D | disrupting interaction strength
4 | L64A | decreasing interaction strength
